Data: patent US20050106177A1

Assays:
Test in all cases: cell-based or functional assay
[1] = biological target: HXBc2 envelope glycoproteins on recombinant HIV-1 (HIV-1, TCLA strain HXBc2) (UniProt P04578)
[2] = biological target: ADA envelope glycoproteins on recombinant HIV-1 (HIV-1, primary isolate ADA)
[3] = biological target: YU2 envelope glycoproteins on recombinant HIV-1 (HIV-1, primary isolate YU2) (UniProt P35961)
Sequence of UniProt P35961 (P35961 32-843): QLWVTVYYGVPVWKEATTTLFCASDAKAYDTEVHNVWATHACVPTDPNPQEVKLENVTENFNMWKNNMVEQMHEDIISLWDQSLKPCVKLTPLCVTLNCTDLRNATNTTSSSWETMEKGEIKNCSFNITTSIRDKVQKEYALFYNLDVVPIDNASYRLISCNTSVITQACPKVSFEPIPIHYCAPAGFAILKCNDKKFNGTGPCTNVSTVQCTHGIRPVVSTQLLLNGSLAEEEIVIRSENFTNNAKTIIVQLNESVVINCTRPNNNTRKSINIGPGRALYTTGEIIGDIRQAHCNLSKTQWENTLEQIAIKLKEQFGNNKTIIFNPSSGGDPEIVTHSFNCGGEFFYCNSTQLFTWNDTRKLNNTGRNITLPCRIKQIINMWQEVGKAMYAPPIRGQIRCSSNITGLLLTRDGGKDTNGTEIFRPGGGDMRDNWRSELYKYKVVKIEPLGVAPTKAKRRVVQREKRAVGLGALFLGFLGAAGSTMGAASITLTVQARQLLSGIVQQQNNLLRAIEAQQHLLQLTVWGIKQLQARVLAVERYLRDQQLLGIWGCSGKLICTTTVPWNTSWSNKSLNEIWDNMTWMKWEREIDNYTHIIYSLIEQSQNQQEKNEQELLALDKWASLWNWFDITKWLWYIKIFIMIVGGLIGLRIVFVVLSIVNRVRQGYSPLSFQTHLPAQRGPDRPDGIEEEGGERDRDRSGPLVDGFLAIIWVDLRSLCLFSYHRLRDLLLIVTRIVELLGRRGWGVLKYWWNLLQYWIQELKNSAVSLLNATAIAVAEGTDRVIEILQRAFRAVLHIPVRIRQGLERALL

For IgG1b12 antibody, the 90% neutralization of recombinant virus, single-round luciferase entry assay (g/ml (so in the source); symbol garbled)) [1] was 1.25, the 50% neutralization of recombinant virus, single-round luciferase entry assay (:g/ml (so in the source); symbol garbled)) [2] was 2.5 and the 90% neutralization of recombinant virus, single-round luciferase entry assay (:g/ml (so in the source); symbol garbled)) [2] was > 10. For the same substance, the 50% neutralization of recombinant virus, single-round luciferase entry assay (:g/ml (so in the source); symbol garbled)) [3] was 5 and the 90% neutralization of recombinant virus, single-round luciferase entry assay (:g/ml (so in the source); symbol garbled)) [3] was > 20.
